Drawing on patent US12679878B2, “CRF2 receptor agonists and their use in therapy” (SANOFI, priority 2020, dated 2026), this text covers EC50 [nM], 0% HSA and EC50 [nM], 0.1% HSA for seven molecules.

Starred links: 1 amine or outer side, 2 acyl side, 3 side chain; linkers in the order of their positions; H or OH if unused. Non-standard residues stand in square brackets, D forms with d. Groups on a side chain read outwards from the residue. No end group written: not given here. *: point of attachment. C20 diacid = O=C(O)CCCCCCCCCCCCCCCCCCC(=O)*; C18 diacid = O=C(O)CCCCCCCCCCCCCCCCC(=O)*; C16 diacid = O=C(O)CCCCCCCCCCCCCCC(=O)*; γGlu = O=C(O)[C@H](CCC(=O)[*:2])N[*:1]; Palmitoyl = CCCCCCCCCCCCCCCC(=O)*; AEEA = NCCOCCOCC(=O)O; Aib = CC(C)(N)C(=O)O

The experiment concerns the target human corticotropin-releasing factor 2α (CRF2 α receptor) (human), Q13324. Description: cell-based or functional assay.

Sequence of human corticotropin-releasing factor 2α (CRF2 α receptor) (human), Q13324 (Q13324 20-411): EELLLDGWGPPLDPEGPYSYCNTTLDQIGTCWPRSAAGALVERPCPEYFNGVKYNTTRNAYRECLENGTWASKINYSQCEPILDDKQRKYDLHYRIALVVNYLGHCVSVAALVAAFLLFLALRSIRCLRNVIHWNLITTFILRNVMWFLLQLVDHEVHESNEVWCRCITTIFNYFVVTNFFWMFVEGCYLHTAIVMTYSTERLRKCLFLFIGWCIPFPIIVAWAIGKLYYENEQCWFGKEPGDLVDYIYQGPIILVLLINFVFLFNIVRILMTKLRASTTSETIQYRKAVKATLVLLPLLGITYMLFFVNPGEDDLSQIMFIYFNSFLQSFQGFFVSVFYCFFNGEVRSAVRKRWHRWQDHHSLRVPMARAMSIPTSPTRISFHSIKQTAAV

B1: SEQ ID NO: 184 (peptide)
peptide: IVLSLD[dV]PIKLK(C18 diacid)QILLKQERQKKQRQQAEKNKQILAQV-NH2
modifications: N-terminus assumed
SMILES: CC[C@H](C)[C@H](N)C(=O)N[C@H](C(=O)N[C@@H](CC(C)C)C(=O)N[C@@H](CO)C(=O)N[C@@H](CC(C)C)C(=O)N[C@@H](CC(=O)O)C(=O)N[C@@H](C(=O)N1CCC[C@H]1C(=O)N[C@H](C(=O)N[C@@H](CCCCN)C(=O)N[C@@H](CC(C)C)C(=O)N[C@@H](CCCCNC(=O)CCCCCCCCCCCCCCCCC(=O)O)C(=O)N[C@@H](CCC(N)=O)C(=O)N[C@H](C(=O)N[C@@H](CC(C)C)C(=O)N[C@@H](CC(C)C)C(=O)N[C@@H](CCCCN)C(=O)N[C@@H](CCC(N)=O)C(=O)N[C@@H](CCC(=O)O)C(=O)N[C@@H](CCCNC(=N)N)C(=O)N[C@@H](CCC(N)=O)C(=O)N[C@@H](CCCCN)C(=O)N[C@@H](CCCCN)C(=O)N[C@@H](CCC(N)=O)C(=O)N[C@@H](CCCNC(=N)N)C(=O)N[C@@H](CCC(N)=O)C(=O)N[C@@H](CCC(N)=O)C(=O)N[C@@H](C)C(=O)N[C@@H](CCC(=O)O)C(=O)N[C@@H](CCCCN)C(=O)N[C@@H](CC(N)=O)C(=O)N[C@@H](CCCCN)C(=O)N[C@@H](CCC(N)=O)C(=O)N[C@H](C(=O)N[C@@H](CC(C)C)C(=O)N[C@@H](C)C(=O)N[C@@H](CCC(N)=O)C(=O)N[C@H](C(N)=O)C(C)C)[C@@H](C)CC)[C@@H](C)CC)[C@@H](C)CC)C(C)C)C(C)C
The molecule B1 came in with an EC50 [nM], 0% HSA of 0.05 nM and an EC50 [nM], 0.1% HSA of 2.83 nM.

B2: SEQ ID NO: 24 (peptide)
peptide: IVLSLD[dV]PTKLK([AEEA-AEEA-γGlu-C18 diacid])QKLLKQERQRKEREQAEKNKRILERV-NH2
modifications: N-terminus assumed
SMILES: CC[C@H](C)[C@H](N)C(=O)N[C@H](C(=O)N[C@@H](CC(C)C)C(=O)N[C@@H](CO)C(=O)N[C@@H](CC(C)C)C(=O)N[C@@H](CC(=O)O)C(=O)N[C@@H](C(=O)N1CCC[C@H]1C(=O)N[C@H](C(=O)N[C@@H](CCCCN)C(=O)N[C@@H](CC(C)C)C(=O)N[C@@H](CCCCNC(=O)COCCOCCNC(=O)COCCOCCNC(=O)CC[C@H](NC(=O)CCCCCCCCCCCCCCCCC(=O)O)C(=O)O)C(=O)N[C@@H](CCC(N)=O)C(=O)N[C@@H](CCCCN)C(=O)N[C@@H](CC(C)C)C(=O)N[C@@H](CC(C)C)C(=O)N[C@@H](CCCCN)C(=O)N[C@@H](CCC(N)=O)C(=O)N[C@@H](CCC(=O)O)C(=O)N[C@@H](CCCNC(=N)N)C(=O)N[C@@H](CCC(N)=O)C(=O)N[C@@H](CCCNC(=N)N)C(=O)N[C@@H](CCCCN)C(=O)N[C@@H](CCC(=O)O)C(=O)N[C@@H](CCCNC(=N)N)C(=O)N[C@@H](CCC(=O)O)C(=O)N[C@@H](CCC(N)=O)C(=O)N[C@@H](C)C(=O)N[C@@H](CCC(=O)O)C(=O)N[C@@H](CCCCN)C(=O)N[C@@H](CC(N)=O)C(=O)N[C@@H](CCCCN)C(=O)N[C@@H](CCCNC(=N)N)C(=O)N[C@H](C(=O)N[C@@H](CC(C)C)C(=O)N[C@@H](CCC(=O)O)C(=O)N[C@@H](CCCNC(=N)N)C(=O)N[C@H](C(N)=O)C(C)C)[C@@H](C)CC)[C@@H](C)O)C(C)C)C(C)C
Consider B2, for which the EC50 [nM], 0% HSA worked out at 6.95 nM.

B3: SEQ ID NO: 183 (peptide)
peptide: IVLSLD[dV]PIKLK(C18 diacid)QILLKQARQK[Aib]QRAQAEKNKRILERV-NH2
modifications: N-terminus assumed
SMILES: CC[C@H](C)[C@H](N)C(=O)N[C@H](C(=O)N[C@@H](CC(C)C)C(=O)N[C@@H](CO)C(=O)N[C@@H](CC(C)C)C(=O)N[C@@H](CC(=O)O)C(=O)N[C@@H](C(=O)N1CCC[C@H]1C(=O)N[C@H](C(=O)N[C@@H](CCCCN)C(=O)N[C@@H](CC(C)C)C(=O)N[C@@H](CCCCNC(=O)CCCCCCCCCCCCCCCCC(=O)O)C(=O)N[C@@H](CCC(N)=O)C(=O)N[C@H](C(=O)N[C@@H](CC(C)C)C(=O)N[C@@H](CC(C)C)C(=O)N[C@@H](CCCCN)C(=O)N[C@@H](CCC(N)=O)C(=O)N[C@@H](C)C(=O)N[C@@H](CCCNC(=N)N)C(=O)N[C@@H](CCC(N)=O)C(=O)N[C@@H](CCCCN)C(=O)NC(C)(C)C(=O)N[C@@H](CCC(N)=O)C(=O)N[C@@H](CCCNC(=N)N)C(=O)N[C@@H](C)C(=O)N[C@@H](CCC(N)=O)C(=O)N[C@@H](C)C(=O)N[C@@H](CCC(=O)O)C(=O)N[C@@H](CCCCN)C(=O)N[C@@H](CC(N)=O)C(=O)N[C@@H](CCCCN)C(=O)N[C@@H](CCCNC(=N)N)C(=O)N[C@H](C(=O)N[C@@H](CC(C)C)C(=O)N[C@@H](CCC(=O)O)C(=O)N[C@@H](CCCNC(=N)N)C(=O)N[C@H](C(N)=O)C(C)C)[C@@H](C)CC)[C@@H](C)CC)[C@@H](C)CC)C(C)C)C(C)C
For the molecule B3, the EC50 [nM], 0% HSA turned out to be 0.12 nM and the EC50 [nM], 0.1% HSA was 1.58 nM.

B4: SEQ ID NO: 25 (peptide)
peptide: IVLSLD[dV]PTKLK([γGlu-Palmitoyl])KKLLKQERKRKEREKAEKNARILERV-NH2
modifications: N-terminus assumed
SMILES: CCCCCCCCCCCCCCCC(=O)N[C@@H](CCC(=O)NCCCC[C@H](NC(=O)[C@H](CC(C)C)NC(=O)[C@H](CCCCN)NC(=O)[C@@H](NC(=O)[C@@H]1CCCN1C(=O)[C@H](NC(=O)[C@H](CC(=O)O)NC(=O)[C@H](CC(C)C)NC(=O)[C@H](CO)NC(=O)[C@H](CC(C)C)NC(=O)[C@@H](NC(=O)[C@@H](N)[C@@H](C)CC)C(C)C)C(C)C)[C@@H](C)O)C(=O)N[C@@H](CCCCN)C(=O)N[C@@H](CCCCN)C(=O)N[C@@H](CC(C)C)C(=O)N[C@@H](CC(C)C)C(=O)N[C@@H](CCCCN)C(=O)N[C@@H](CCC(N)=O)C(=O)N[C@@H](CCC(=O)O)C(=O)N[C@@H](CCCNC(=N)N)C(=O)N[C@@H](CCCCN)C(=O)N[C@@H](CCCNC(=N)N)C(=O)N[C@@H](CCCCN)C(=O)N[C@@H](CCC(=O)O)C(=O)N[C@@H](CCCNC(=N)N)C(=O)N[C@@H](CCC(=O)O)C(=O)N[C@@H](CCCCN)C(=O)N[C@@H](C)C(=O)N[C@@H](CCC(=O)O)C(=O)N[C@@H](CCCCN)C(=O)N[C@@H](CC(N)=O)C(=O)N[C@@H](C)C(=O)N[C@@H](CCCNC(=N)N)C(=O)N[C@H](C(=O)N[C@@H](CC(C)C)C(=O)N[C@@H](CCC(=O)O)C(=O)N[C@@H](CCCNC(=N)N)C(=O)N[C@H](C(N)=O)C(C)C)[C@@H](C)CC)C(=O)O
Consider B4, for which the EC50 [nM], 0% HSA came out at 0.09 nM.

B5: SEQ ID NO: 222 (peptide)
peptide: IVLSLD[dV]PTKLK([γGlu-C16 diacid])QKLLKQERQRKEREQAEKNVRILERV-NH2
modifications: N-terminus assumed
SMILES: CC[C@H](C)[C@H](N)C(=O)N[C@H](C(=O)N[C@@H](CC(C)C)C(=O)N[C@@H](CO)C(=O)N[C@@H](CC(C)C)C(=O)N[C@@H](CC(=O)O)C(=O)N[C@@H](C(=O)N1CCC[C@H]1C(=O)N[C@H](C(=O)N[C@@H](CCCCN)C(=O)N[C@@H](CC(C)C)C(=O)N[C@@H](CCCCNC(=O)CC[C@H](NC(=O)CCCCCCCCCCCCCCC(=O)O)C(=O)O)C(=O)N[C@@H](CCC(N)=O)C(=O)N[C@@H](CCCCN)C(=O)N[C@@H](CC(C)C)C(=O)N[C@@H](CC(C)C)C(=O)N[C@@H](CCCCN)C(=O)N[C@@H](CCC(N)=O)C(=O)N[C@@H](CCC(=O)O)C(=O)N[C@@H](CCCNC(=N)N)C(=O)N[C@@H](CCC(N)=O)C(=O)N[C@@H](CCCNC(=N)N)C(=O)N[C@@H](CCCCN)C(=O)N[C@@H](CCC(=O)O)C(=O)N[C@@H](CCCNC(=N)N)C(=O)N[C@@H](CCC(=O)O)C(=O)N[C@@H](CCC(N)=O)C(=O)N[C@@H](C)C(=O)N[C@@H](CCC(=O)O)C(=O)N[C@@H](CCCCN)C(=O)N[C@@H](CC(N)=O)C(=O)N[C@H](C(=O)N[C@@H](CCCNC(=N)N)C(=O)N[C@H](C(=O)N[C@@H](CC(C)C)C(=O)N[C@@H](CCC(=O)O)C(=O)N[C@@H](CCCNC(=N)N)C(=O)N[C@H](C(N)=O)C(C)C)[C@@H](C)CC)C(C)C)[C@@H](C)O)C(C)C)C(C)C
For the molecule B5, the EC50 [nM], 0% HSA turned out to be 0.01 nM. IVLSLD[dV]PTKLK([AEEA-AEEA-γGlu-C20 diacid])KKLLKQERKR[Aib]EREKAEKAARILERV-NH2 [SEQ ID NO: 224] had an EC50 [nM], 0% HSA of 6.85 nM.

B6: SEQ ID NO: 23 (peptide)
peptide: IVLSLD[dV]PTKLK([γGlu-Palmitoyl])QKLLKQERQRKER[Aib]QAEKNKRILERV-NH2
modifications: N-terminus assumed
SMILES: CCCCCCCCCCCCCCCC(=O)N[C@@H](CCC(=O)NCCCC[C@H](NC(=O)[C@H](CC(C)C)NC(=O)[C@H](CCCCN)NC(=O)[C@@H](NC(=O)[C@@H]1CCCN1C(=O)[C@H](NC(=O)[C@H](CC(=O)O)NC(=O)[C@H](CC(C)C)NC(=O)[C@H](CO)NC(=O)[C@H](CC(C)C)NC(=O)[C@@H](NC(=O)[C@@H](N)[C@@H](C)CC)C(C)C)C(C)C)[C@@H](C)O)C(=O)N[C@@H](CCC(N)=O)C(=O)N[C@@H](CCCCN)C(=O)N[C@@H](CC(C)C)C(=O)N[C@@H](CC(C)C)C(=O)N[C@@H](CCCCN)C(=O)N[C@@H](CCC(N)=O)C(=O)N[C@@H](CCC(=O)O)C(=O)N[C@@H](CCCNC(=N)N)C(=O)N[C@@H](CCC(N)=O)C(=O)N[C@@H](CCCNC(=N)N)C(=O)N[C@@H](CCCCN)C(=O)N[C@@H](CCC(=O)O)C(=O)N[C@@H](CCCNC(=N)N)C(=O)NC(C)(C)C(=O)N[C@@H](CCC(N)=O)C(=O)N[C@@H](C)C(=O)N[C@@H](CCC(=O)O)C(=O)N[C@@H](CCCCN)C(=O)N[C@@H](CC(N)=O)C(=O)N[C@@H](CCCCN)C(=O)N[C@@H](CCCNC(=N)N)C(=O)N[C@H](C(=O)N[C@@H](CC(C)C)C(=O)N[C@@H](CCC(=O)O)C(=O)N[C@@H](CCCNC(=N)N)C(=O)N[C@H](C(N)=O)C(C)C)[C@@H](C)CC)C(=O)O
In turn, B6 gave an EC50 [nM], 0% HSA of 0.02 nM.
